From patent US20150218285A1 (TORAY INDUSTRIES, published 2015)

Assays:
[1] = molecular target: T1, polypeptide set forth in SEQ ID NO: 266 (human); experiment: ELISA on immobilised synthetic CAPRIN-1 peptides, culture supernatant
T1 construct: identified by ELISA on synthetic 12-16 aa peptides of human CAPRIN-1
T1 peptide: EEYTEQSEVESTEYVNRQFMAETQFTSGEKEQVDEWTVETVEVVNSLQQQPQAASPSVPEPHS

[2] = molecular target: T2, peptide set forth in SEQ ID NO: 267 (human); experiment: as above
T2 peptide: QQPQAASPSVPE

[3] = molecular target: T3, CAPRIN-1 protein on the cell surface of human cancer cells (human, UniProt Q14444 2-709); experiment: cell-based or functional assay
T3 sequence (looked up): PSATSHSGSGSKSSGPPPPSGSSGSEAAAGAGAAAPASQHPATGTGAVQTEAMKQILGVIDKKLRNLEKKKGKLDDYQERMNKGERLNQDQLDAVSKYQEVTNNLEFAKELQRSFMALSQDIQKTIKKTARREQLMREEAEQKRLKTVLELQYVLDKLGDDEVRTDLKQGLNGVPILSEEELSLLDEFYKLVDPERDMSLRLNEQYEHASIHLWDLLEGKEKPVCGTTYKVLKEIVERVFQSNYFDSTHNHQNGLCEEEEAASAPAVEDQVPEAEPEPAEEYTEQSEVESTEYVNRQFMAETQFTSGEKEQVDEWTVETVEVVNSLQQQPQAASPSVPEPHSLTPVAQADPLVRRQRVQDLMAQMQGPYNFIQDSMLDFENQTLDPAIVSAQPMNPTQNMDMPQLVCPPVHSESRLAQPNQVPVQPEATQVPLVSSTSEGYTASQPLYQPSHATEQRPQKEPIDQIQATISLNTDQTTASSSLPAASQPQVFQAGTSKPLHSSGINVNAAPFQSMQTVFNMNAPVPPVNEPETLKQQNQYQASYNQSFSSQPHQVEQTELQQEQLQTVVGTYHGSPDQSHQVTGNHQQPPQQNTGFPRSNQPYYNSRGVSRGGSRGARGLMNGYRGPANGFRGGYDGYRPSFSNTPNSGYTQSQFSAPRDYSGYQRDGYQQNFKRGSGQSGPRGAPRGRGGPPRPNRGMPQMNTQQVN

[4] = molecular target: T3, CAPRIN-1 protein on the cell surface of …; experiment: flow cytometry on Hep3B, HepG2, SK-Hep-1, SW480; culture supernatant; vs isotype control
Method: Subsequently, four liver cancer cell lines (Hep3 GB, HepG2, SK-Hep-1, and SW480), which were confirmed to express a CAPRIN-1 gene, were investigated for whether or not a CAPRIN-1 protein is expressed on the surfaces of these cells. 1×10⁶ cells of each cell line were centrifuged with a 1.5-mL micro centrifugation tube. To the cells was added the culture supernatant (100 μL) containing any of mouse monoclonal antibodies #1 to #22 against a CAPRIN-1 protein reacting to cancer cell surface produced in Example 4 and mouse-chicken chimeric antibodies #1 to #3 against a CAPRIN-1 protein produced in the above (2), followed by being left to stand on ice for 1 hour. After washing with PBS, the cells were suspended in a FITC-labeled goat anti-mouse IgG antibody (manufactured by Invitrogen Corporation) diluted by 500-fold with PBS containing 0.1% FBS, followed by being left to stand on ice for 1 hour. After washing with PBS, the fluorescence intensity was measured with FACS Calibur available from Becton, Dickinson and Company. Separately, as a control, the same procedure as in above was performed using an iso-type control antibody, instead of the culture supernatants containing the mouse monoclonal antibodies #1 to #22 against a CAPRIN-1 protein and the mouse-chicken chimeric antibodies #1 to #3. As a result, the fluorescence intensity in the cells to which any of the monoclonal antibodies #1 to #22 and the mouse-chicken chimeric antibodies #1 to #3 was added was 20% or more higher than that in the control in every case. Specifically, in the case of using mouse-chicken chimeric antibody #1, the fluorescence intensity was enhanced by 200% or more in both SK-Hep-1 and Hep3B. […] The rate of increase in the fluorescence intensity is represented by the rate of increase in the mean fluorescence intensity (MFI value) in each cell and is calculated by the following calculation formula: […]

[5] = molecular target: T4, human CAPRIN-1 recombinant protein (human, UniProt Q14444 1-709); experiment: reactivity with CAPRIN-1 protein, method not detailed
T4 construct: also called CAPRIN-1 protein; human CAPRIN-1 protein
T4 sequence: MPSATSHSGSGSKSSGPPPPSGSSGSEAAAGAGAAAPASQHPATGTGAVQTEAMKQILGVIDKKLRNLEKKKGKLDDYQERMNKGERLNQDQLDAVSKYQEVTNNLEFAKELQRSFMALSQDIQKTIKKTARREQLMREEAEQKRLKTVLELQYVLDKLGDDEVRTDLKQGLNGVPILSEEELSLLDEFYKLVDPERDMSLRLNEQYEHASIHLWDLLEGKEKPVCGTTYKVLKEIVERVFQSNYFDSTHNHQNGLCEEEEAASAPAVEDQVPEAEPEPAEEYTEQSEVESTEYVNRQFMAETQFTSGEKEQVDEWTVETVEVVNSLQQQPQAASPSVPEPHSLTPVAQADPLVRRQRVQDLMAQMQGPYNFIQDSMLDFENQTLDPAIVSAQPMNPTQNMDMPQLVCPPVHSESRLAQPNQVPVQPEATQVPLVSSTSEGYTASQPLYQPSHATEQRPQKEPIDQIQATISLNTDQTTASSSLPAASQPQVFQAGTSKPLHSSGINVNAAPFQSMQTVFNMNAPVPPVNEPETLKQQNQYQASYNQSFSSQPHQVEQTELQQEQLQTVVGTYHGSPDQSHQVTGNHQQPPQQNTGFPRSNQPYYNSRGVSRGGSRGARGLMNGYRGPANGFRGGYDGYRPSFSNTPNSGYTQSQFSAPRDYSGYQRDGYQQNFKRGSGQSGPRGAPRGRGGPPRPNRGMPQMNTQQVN

[6] = molecular target: T5, polypeptide set forth in SEQ ID NO: 430 (human); experiment: reactivity with the epitope peptide, method not detailed
T5 peptide: ATQVPLVSSTSEGYTA

[7] = molecular target: T3, CAPRIN-1 protein on the cell surface of …; experiment: reactivity with liver cancer cell lines, method not detailed

Row | Binder | binding result [1] | binding result [2] | cytotoxicity (ADCC, 51Cr release) on SK-Hep-1 [3] | rate of increase in mean fluorescence intensity [4] | binding result [5] | binding result [6] | binding result [7]
1 | human-chicken chimeric antibody #1 (antibody, human IgG1, kappa, V domains shown, chicken variable domains with human IgG1 H-chain and L-chain constant domains; also called human-chicken chimeric monoclonal antibody #1) VH: AVTLDESGGGLQMSRGGLSLVCKASGFDFSSYQMNWIRQAPGKGLEFVAAINKFGNSTGHGAAVKGRVTISRDNGQSTVRLQLNNLRAEDTAIYFCTKHAYGYCGSGTWCAAGEIDAWGHGTEVIVSS VL: QAASTQPSSVSANPGETVEITCSGGGSYSYGWFQQKSPGSAPVTVIYYNNKRPSDIPSRFSGSKSGSTGTLTITGVQADDEAVYYCGSGDSTDTAVFGAGTTLTVLG | binds | binds |  |  |  |  | 
2 | mouse monoclonal antibody #4 (antibody, V domains shown, mouse hybridoma antibody) VH: GAELVRSGASVKMSCKASGYSFTDYNMYWVKQTPGQGLEWIGYIYPGNGGTNYNQKFKGKATLTADTSSSTAYMQISSLTSEDSAVYFCARDYDDGGYAMDYWGQGTTVTVSS VL: DIQMTQSPASLSASVGETVTITCRASGNIHNYLTWYQQKQGKSPQLLVYNAKTLADGVPSRFSGSGSGTQYSLKINRLQPEDFGSYYCQHFWNIPWTFGGGTKLNSR | binds | binds | ≥ 12% | ≥ 20% |  |  | 
3 | mouse monoclonal antibody #18 (antibody, V domains shown, mouse hybridoma antibody) VH: LQESGAELARPGASVKLSCKASGYTFTSYWMQWVKQRPGQGLEWIGAIYPGDGDTRYTQKFKGKATLTADKSSSTAYMQLSSLASEDSAVYYCARGEYGNYFAYWGQGTTVTVSS VL: TSDASLGERVTITCKASQDINSYLSWFQQKPGKSPKTLIYRANRLVDGVPSRFSGSGSGQDYSLTISSLEYEDMGIYYCLQYDEFPLTFGGGTKLEIKQ |  |  | ≥ 12% | ≥ 20% |  |  | 
4 | humanized anti-CAPRIN-1 antibody #2 (antibody, human IgG1, V domains shown) VH: EVQLVESGGGLVQPGGSLRLSCAASGFSFSGSYYMSWVRQAPGKGLEWIAYIYIGDGVTAYANWAKGRFTISKDNSKNTLYLQMNSLRAEDTAVYFCARGNKLWGPGTLVTVSS VL: DIQMTQSPSSLSASVGDRVTIKCQASQSISSYLAWYQQKPGKAPKRLIYDASNLDSGVPSRFSGSGSGTDFTFTISSLQPEDIATYYCQCTAVSSATIYGNAFGGGTKVEIK |  |  |  |  | binds | binds | binds
5 | humanized anti-CAPRIN-1 antibody #3 (antibody, human IgG1, V domains shown) VH: EVQLVESGGGLVQPGGSLRLSCAASGFSFSGSYYMSWVRQAPGKGLEWIAYIYIGDGVTAYANWAKGRFTISRDNSKNTLYLQMNSLRAEDTAVYYCARGNKLWGPGTLVTVSS VL: DIQMTQSPSSLSASVGDRVTIKCQASQSISSYLAWYQQKPGKAPKRLIYDASNLDSGVPSRFSGSGSGTDFTFTISSLQPEDIATYYCQCTAVSSATIYGNAFGGGTKVEIK |  |  |  |  | binds | binds | binds
6 | humanized anti-CAPRIN-1 antibody #1 (antibody, human IgG1, V domains shown) VH: QVQLVESGGGLVKPGGSLRLSCAASGFSFSGSYYMSWVRQAPGKGLEWIAYIYIGDGVTAYANWAKGRFTISRDNAKNSLYLQMNSLRAEDTAVYFCARGNRLWGQGTLVTVSS VL: DIQMTQSPSSLSAAVGDRVTIKCQASQSISSYLAWYQQKPGKPPKRLIYDASNLDSGVPSRFSGSGSGTDFTFTISSLQPEDIATYYCQCTAVSSATIYGNAFGGGTKVEIK |  |  |  |  | binds | binds | binds
7 | mouse monoclonal antibody #12 (antibody, V domains shown, mouse hybridoma antibody) VH: EVQLHQFGAELVKPGASVKISCKASGYTFTDYNMDWVKQSHGKSLEWIGDINPNYDSTSYNQKFKGKATLTVDKSSSTAYMELRSLTSEDTAVYYCARSRSYDYEGFAYWGQGTLVTVSA VL: DIQMTQSPASLSASVGETVTITCRASGNIHNYLAWYQQKQGKSPQLLVYNAKTLADGVPSRFSGSGSGTQYSLKINSLQPEDFGSYYCQHFWSTLTFGAGTKLELKR |  |  | ≥ 12% | ≥ 20% |  |  | 
8 | mouse monoclonal antibody #14 (antibody, V domains shown, mouse hybridoma antibody) VH: EVQLHQFGAELVKPGASVKISCKASGYTFTDYNMDWVKQSHGKSLEWIGDINPNYDSTSYNQKFKGKATLTVDKSSSTAYMELRSLTSEDTAVYYCARSRSYDYEGFAYWGQGTLVTVSA VL: DIQLTQSPASLSASVGETVTITCRASGNIHNYLAWYQQKQGKSPQLLVYNAKTLADGVPSRFSGSGSGTQYSLKINSLQPEDFGSYYCQHFWSTLTFGGGTKLEIK |  |  | ≥ 12% | ≥ 20% |  |  | 
9 | mouse monoclonal antibody #15 (antibody, V domains shown, mouse hybridoma antibody) VH: EVQLHQFGAELVKPGASVKISCKASGYTFTDYNMDWVKQSHGKSLEWIGDINPNYDSTSYNQKFKGKATLTVDKSSSTAYMELRSLTSEDTAVYYCARSRSYDYEGFAYWGQGTLVTVSA VL: SGDRVSLSCRASQSISNYLHWYQQKSHESPRLLIKYASQSISGIPSRFSGSGSGTDFTLSINSVETEDFGMYFCQQSNSWPYTFGAGTKLEIKQ |  |  | ≥ 12% | ≥ 20% |  |  | 
10 | mouse monoclonal antibody #8 (antibody, V domains shown, mouse hybridoma antibody; also called anti-CAPRIN-1 monoclonal antibody #8) VH: GGGLVKPGGSLKLSCAASGFAFSSYDMSWIRQTPEKRLEWVAYISSGAGSTYYPDTVKGRFTVSRDNAKNTLYLQMSSLKSEDTAMYYCARHFYRFDYWGQGTTVTVSS VL: SIVMTQTPKFLLVSAGDRITITCKASQSVSNDVAWYQQKPGQSPKLLIYYASNRYTGVPDRFTGSGYGTDFTFTISTVQAEDLAVYFCQQDDRFPLTFGAGPS |  |  | ≥ 12% | ≥ 20% |  |  | 
11 | mouse monoclonal antibody #3 (antibody, V domains shown) VH: GGGLVKPGGSLKLSCAASGFTFSSYGMSWVRQTPEKRLEWVATISSGGSYTYYPDSVKGRFTISRDNAKNTLYLQMSSLRSEDTAMYYCASLASYYFDYWGQGTTLTVSS VL: not shown |  |  | ≥ 12% | ≥ 20% |  |  | 
